B1: BisG1-FAPα-FERL/DR4-FERR (bispecific antibody, human IgG1, kappa, lambda)
heavy 1: EVQLLESGGGLVQPGGSPRLSCEASGFTFSSYALSWVRQAPGKGLEWVSAISGSGGGRYYADSVKGRFTISRDNSKNTLFLQMNSLRAEDTAVYYCAKEGYSSSGTYWDHWGQGTLVTVSSASTKGPSVFPLAPSSKSTSGGTAALGCLVKDYFPEPVTVSWNSGALTSGVHTFPAVLQSSGLYSLSSVVTVPSSSLGTQTYICNVNHKPSNTKVDKRVEPKSCDKTHTCPPCPAPEFERGPSVFLFPPKPKDTLMISRTPEVTCVVVDVSHEDPEVKFNWYVDGVEVHNAKTKPREEQYNSTYRVVSVLTVLHQDWLNGKEYKCKVSNKALPAPIEKTISKAKGQPREPQVYTLPPSREEMTKNQVSLTCLVKGFYPSDIAVEWESNGQPENNYKTTPPVLDSDGSFLLYSKLTVDKSRWQQGNVFSCSVMHEALHNHYTQKSLSLSPG
light 1: AIQMTQSPSSVSASVGDRVTITCRASQGVSSWLAWYQQKPGRAPKLLIYVASTLQSGVPSRFSGSGSGTDFTLTINSLQPEDFATYYCQQANSFPPTFGQGTRLEMKRTVAAPSVFIFPPSDEQLKSGTASVVCLLNNFYPREAKVQWKVDNALQSGNSQESVTEQDSKDSTYSLSSTLTLSKADYEKHKVYACEVTHQGLSSPVTKSFNRGEC
heavy 2: QVQLQESGPGLVKPSGTLSLTCAVSGGSISSYSWWSWIRQPPGKGLEWIGELYHSGSTNYNPSLKSRVTISVDKSKNQFSLKLRSVTAADTAVYYCVRGVATIDYWGQGTLVTVSSASTKGPSVFPLAPSSKSTSGGTAALGCLVKDYFPEPVTVSWNSGALTSGVHTFPAVLQSSGLYSLSSVVTVPSSSLGTQTYICNVNHKPSNTKVDKRVEPKSCDKTHTCPPCPAPEFERGPSVFLFPPKPKDTLMISRTPEVTCVVVDVSHEDPEVKFNWYVDGVEVHNAKTKPREEQYNSTYRVVSVLTVLHQDWLNGKEYKCKVSNKALPAPIEKTISKAKGQPREPQVYTLPPSREEMTKNQVSLTCLVKGFYPSDIAVEWESNGQPENNYKTTPPVLDSDGSFFLYSRLTVDKSRWQQGNVFSCSVMHEALHNHYTQKSLSLSPG
light 2: QSALTQPPSASGSPGQSVTISCTGTSSDVGGYNFVSWYQQDPGKAPKLLIYEVTKRPSGVPDRFSGSKSGNTASLTVSGLQAEDEADYYCSSYAGSNNVMFGGGTKLTVLGQPKAAPSVTLFPPSSEELQANKATLVCLISDFYPGAVTVAWKADSSPVKAGVETTTPSKQSNNKYAASSYLSLTPEQWKSHRSYSCQVTHEGSTVEKTVAPTECS
notes: Human IgG1 bispecific made by controlled Fab-arm exchange of IgG1-FAPα-FERL and IgG1-DR4-FERR; monovalent for FAPα and for DR4; also called GEN1057
B2: BisG1-b12-FERL/DR4-FERR (bispecific antibody, human IgG1, kappa, lambda)
heavy 1: QVQLVQSGAEVKKPGASVKVSCQASGYRFSNFVIHWVRQAPGQRFEWMGWINPYNGNKEFSAKFQDRVTFTADTSANTAYMELRSLRSADTAVYYCARVGPYSWDDSPQDNYYMDVWGKGTTVIVSSASTKGPSVFPLAPSSKSTSGGTAALGCLVKDYFPEPVTVSWNSGALTSGVHTFPAVLQSSGLYSLSSVVTVPSSSLGTQTYICNVNHKPSNTKVDKRVEPKSCDKTHTCPPCPAPEFERGPSVFLFPPKPKDTLMISRTPEVTCVVVDVSHEDPEVKFNWYVDGVEVHNAKTKPREEQYNSTYRVVSVLTVLHQDWLNGKEYKCKVSNKALPAPIEKTISKAKGQPREPQVYTLPPSREEMTKNQVSLTCLVKGFYPSDIAVEWESNGQPENNYKTTPPVLDSDGSFLLYSKLTVDKSRWQQGNVFSCSVMHEALHNHYTQKSLSLSPG
light 1: EIVLTQSPGTLSLSPGERATFSCRSSHSIRSRRVAWYQHKPGQAPRLVIHGVSNRASGISDRFSGSGSGTDFTLTITRVEPEDFALYYCQVYGASSYTFGQGTKLERKRTVAAPSVFIFPPSDEQLKSGTASVVCLLNNFYPREAKVQWKVDNALQSGNSQESVTEQDSKDSTYSLSSTLTLSKADYEKHKVYACEVTHQGLSSPVTKSFNRGEC
heavy 2: QVQLQESGPGLVKPSGTLSLTCAVSGGSISSYSWWSWIRQPPGKGLEWIGELYHSGSTNYNPSLKSRVTISVDKSKNQFSLKLRSVTAADTAVYYCVRGVATIDYWGQGTLVTVSSASTKGPSVFPLAPSSKSTSGGTAALGCLVKDYFPEPVTVSWNSGALTSGVHTFPAVLQSSGLYSLSSVVTVPSSSLGTQTYICNVNHKPSNTKVDKRVEPKSCDKTHTCPPCPAPEFERGPSVFLFPPKPKDTLMISRTPEVTCVVVDVSHEDPEVKFNWYVDGVEVHNAKTKPREEQYNSTYRVVSVLTVLHQDWLNGKEYKCKVSNKALPAPIEKTISKAKGQPREPQVYTLPPSREEMTKNQVSLTCLVKGFYPSDIAVEWESNGQPENNYKTTPPVLDSDGSFFLYSRLTVDKSRWQQGNVFSCSVMHEALHNHYTQKSLSLSPG
light 2: QSALTQPPSASGSPGQSVTISCTGTSSDVGGYNFVSWYQQDPGKAPKLLIYEVTKRPSGVPDRFSGSKSGNTASLTVSGLQAEDEADYYCSSYAGSNNVMFGGGTKLTVLGQPKAAPSVTLFPPSSEELQANKATLVCLISDFYPGAVTVAWKADSSPVKAGVETTTPSKQSNNKYAASSYLSLTPEQWKSHRSYSCQVTHEGSTVEKTVAPTECS
notes: Fab-arm exchange of IgG1-b12-FERL and IgG1-DR4-FERR; also called bsIgG1-ctrl-FERLxDR4-FERR
B3: IgG1-DR4-FERR (antibody, V domains shown)
VH: QVQLQESGPGLVKPSGTLSLTCAVSGGSISSYSWWSWIRQPPGKGLEWIGELYHSGSTNYNPSLKSRVTISVDKSKNQFSLKLRSVTAADTAVYYCVRGVATIDYWGQGTLVTVSS
VL: QSALTQPPSASGSPGQSVTISCTGTSSDVGGYNFVSWYQQDPGKAPKLLIYEVTKRPSGVPDRFSGSKSGNTASLTVSGLQAEDEADYYCSSYAGSNNVMFGGGTKLTVLG
notes: Bivalent monoclonal IgG1 lambda

Tests used:
[1] = target: T1, human DR4 (Death Receptor 4), cell surface expressed on human tumor cell lines (human, UniProt O00220 24-468); assay: flow cytometry, DLD-1 cells, n = 3
T1 construct: also called TNFRSF10A; TRAIL-R1
T1 sequence: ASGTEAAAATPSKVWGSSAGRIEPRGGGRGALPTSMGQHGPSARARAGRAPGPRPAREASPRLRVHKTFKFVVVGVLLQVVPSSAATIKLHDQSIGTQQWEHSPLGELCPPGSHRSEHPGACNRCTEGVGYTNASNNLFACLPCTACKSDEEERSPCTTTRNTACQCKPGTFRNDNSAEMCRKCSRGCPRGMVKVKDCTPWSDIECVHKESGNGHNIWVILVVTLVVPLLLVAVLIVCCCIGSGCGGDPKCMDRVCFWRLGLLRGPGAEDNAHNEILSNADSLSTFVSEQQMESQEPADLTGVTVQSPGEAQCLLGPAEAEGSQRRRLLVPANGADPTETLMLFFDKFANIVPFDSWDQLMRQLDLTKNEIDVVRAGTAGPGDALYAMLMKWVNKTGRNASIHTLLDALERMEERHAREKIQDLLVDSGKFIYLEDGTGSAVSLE

[2] = target: T1, human DR4 (Death Receptor 4), cell …; assay: flow cytometry, HCT-116 cells, n = 2
[3] = target: T1, human DR4 (Death Receptor 4), cell …; assay: flow cytometry, MDA-MB-231 cells, n = 2
[4] = target: T1, human DR4 (Death Receptor 4), cell …; assay: flow cytometry, MDA-MB-231 cells, N = 1
[5] = target: T2, cynomolgus monkey FAPα on Expi293F cells (cynomolgus monkey (Macaca fascicularis), UniProt Q12884 1-760 (human entry)); assay: flow cytometry, Expi293F cells expressing cynomolgus monkey FAPα, n = 1
T2 sequence: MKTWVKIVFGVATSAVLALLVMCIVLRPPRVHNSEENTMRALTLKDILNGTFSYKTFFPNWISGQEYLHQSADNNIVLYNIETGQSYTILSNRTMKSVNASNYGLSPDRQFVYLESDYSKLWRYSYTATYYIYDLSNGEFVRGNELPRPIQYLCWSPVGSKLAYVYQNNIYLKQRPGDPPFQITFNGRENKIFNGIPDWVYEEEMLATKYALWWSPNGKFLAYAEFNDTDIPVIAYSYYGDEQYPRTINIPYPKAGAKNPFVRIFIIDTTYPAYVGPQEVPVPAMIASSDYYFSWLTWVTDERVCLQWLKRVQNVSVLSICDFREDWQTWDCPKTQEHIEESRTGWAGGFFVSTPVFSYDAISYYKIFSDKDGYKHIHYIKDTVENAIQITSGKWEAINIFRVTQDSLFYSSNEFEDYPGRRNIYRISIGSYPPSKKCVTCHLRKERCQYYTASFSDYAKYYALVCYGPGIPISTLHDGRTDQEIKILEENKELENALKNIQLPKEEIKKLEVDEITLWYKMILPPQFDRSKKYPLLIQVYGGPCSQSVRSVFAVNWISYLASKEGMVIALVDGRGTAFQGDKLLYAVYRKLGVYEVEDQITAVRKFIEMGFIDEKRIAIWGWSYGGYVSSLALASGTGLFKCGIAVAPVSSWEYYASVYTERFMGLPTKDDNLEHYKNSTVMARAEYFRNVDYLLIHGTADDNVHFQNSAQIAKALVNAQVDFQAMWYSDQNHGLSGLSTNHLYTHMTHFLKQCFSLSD
Description: (§1) Binding of BisG1-FAPα-FERL/DR4-FERR, BisG1-FAPα-FEAL/b12-FEAR and IgG1-FAPα-FERL to FAPα of species commonly used for nonclinical toxicology studies was assessed by flow cytometry using Expi293F cells transiently expressing FAPα from different animal species. IgG1-b12 was included as negative control.
(§2) Expi293F cells expressing recombinant FAPα from various species (human, cynomolgus monkey, dog, pig, rat or mouse) were seeded (20,000 cells/well) in 96-Well round bottom plates (Greiner Bio-one, Cat #650101). Antibody dilutions were prepared using FACS buffer, consisting of PBS (Capricorn Scientific, Cat #PBS-10XA, diluted to 1×PBS in distilled water)+1% BSA (Roche, Cat #10735086001)+0.02% Sodium Azide (Bio-World, Cat #41920044-3). Plates were centrifuged, supernatant was removed, and cells were resuspended in 100 μL of antibody dilutions (concentration range 30-0.00017 μg/mL with three-fold serial dilutions using FACS buffer) of BisG1-FAPα-FERL/DR4-FERR, BisG1-FAPα-FEAL/b12-FEAR, IgG1-FAPα-FERL and IgG1-b12 and incubated for 30 min at 4° C. […] After 30 min incubation at 4° C., cells were washed with FACS buffer and resuspended in FACS buffer supplemented with TO-PRO-3 Iodide viability marker (Invitrogen, Cat #T3605, diluted 1:4,000). Antibody binding to viable cells (gMFI of PE on TO-PRO-3 negative cells) was analyzed by flow cytometry on a FACS Celesta and FACS_Diva software (first two experiments) or iQue® 3 and FlowJo software (last experiment). gMFI was determined and visualized using GraphPad Prism. Binding curves were analyzed using nonlinear regression analysis. The concentration (pg/mL) at which 50% of the maximal effect was observed (EC₅₀) was derived from the fitted curves.

[6] = target: T2, cynomolgus monkey FAPα on Expi293F cells; assay: flow cytometry, Expi293F cells expressing cynomolgus monkey FAPα, n = 2
Description: as §1, §2

| Binder | EC50 [1] [µg/mL] | EC50 [2] [µg/mL] | EC50 [3] [µg/mL] | EC50 [4] [µg/mL] | EC50 [5] [µg/mL] | EC50 [6] [µg/mL] | Max MFI (at 90 µg/mL) [4] [MFI] |
| --- | --- | --- | --- | --- | --- | --- | --- |
| B1 | 0.67 | 0.55 | 1.24 | 0.71 | 0.24 | 0.36 |  |
| B2 | 0.64 | 0.65 | 1 | 0.39 |  |  | 7840 |
| B3 | 0.23 | 0.16 | 0.27 | 0.24 |  |  |  |

— patent US20250002610A1 (Genmab, published 2025)
